Test results as given in patent US20110256142A1 (Genmab, published 2011).

Legend:
[1] = molecular target: T1, purified EGFR (Sigma-Aldrich, cat no. E3641) (UniProt P00533 25-1210, limits assumed); test: ELISA, plate coated with purified EGFR, anti-human IgG Fc-HRP detection
T1 construct: Bought preparation coated on ELISA plates

[2] = molecular target: T2, EGFR-vIII deletion mutant expressed on transfected Ba/F3 and A431 cells (UniProt P00533 25-1210); test: flow cytometry on Ba/F3 cells transfected with EGFR-vIII, FITC anti-human IgG F(ab')2 detection
T2 construct: whole, on cells; Deletion variant, not expressible as substitutions; also called de2-7 EGFR

B1: Fully human IgG1,κ antibody 018 (P- or LC1006-018) (antibody, V domains shown)
VH: EVQLVESGGGLVQPGGSLRLSCAASGFTFSSYWMNWVRQAPGKGLEWVANIKKDGSEKYYVDSVKGRFTISRDNAKNSLYLQMNSLRAEDTAVYYCARDLGWGWGWYFDLWGRGTLVTVSS
VL: not shown
notes: Human IgG1,κ; P1006-018 uncloned, LC1006-018 cloned hybridoma; also called P1006-018
For B1, the EC50 [1] was 0.081 µg/mL.

B2: Fully human IgG1,κ antibody 003 (P- or LC1006-003) (antibody, V domains shown)
VH: EVQLVESGGGLVQPGGSLRLSCAASGFTFSSYWMTWVRQAPGKGLEWVANIQQDGSEKNYLDSVKGRFTISRDNAKNSLSLQMNSLRAEDTAVYYCARTYSGFEDFWGQGTLVTVSS
VL: EIVLTQSPATLSLSPGERATLSCRASQSVSSYLAWYQQKPGQAPRLLIFDASNRATGIPARFSGSGSGTDFTLTISSLEPEDFAVYYCQQRSNWPPWTFGQGTKVEIK
notes: Human IgG1,κ; P1006-003 is the hybridoma before cloning, LC1006-003 the clone by limiting dilution; also called P1006-003
For B2, the EC50 [1] was 0.117 µg/mL and the binding result [2] was “no binding (tested: saturating concentrations)”.

B3: Fully human IgG1,κ antibody 008 (P- or LC1006-008) (antibody, V domains shown)
VH: EVQLVESGGGLVQPGGSLRLSCAASGFTFSSYWMSWVRQAPGKGLEWVANIKQDGSEENYVDSVKGRFTVSRDNAKNSLYLQMNSLRAEDTAVYYCARTYSGFEDYWGQGTLVTVSS
VL: EIVLTQSPATLSLSPGERATLSCRASQSVSSYLAWYQQKPGQAPRLLIFDASNRATGIPARFSGSGSGTDFTLTISSLEPEDFAVYYCQQRSNWPPWTFGQGTKVEIK
notes: Human IgG1,κ; P1006-008 uncloned, LC1006-008 cloned hybridoma; also called P1006-008
B3 was tested, and the EC50 [1] was 2.46 µg/mL and the binding result [2] was “no binding (tested: saturating concentrations)”.
